Key:
HLA-A*02:06 = test: IEDB peptide-MHC binding, purified MHC/competitive/radioactivity; ≥ and ≤ were set here for values at or beyond the usual limits of such assays
HLA-A*02:03 = test: as above
HLA-A*02:02 = test: as above
HLA-A*02:01 = test: as above
HLA-A*68:02 = test: IEDB peptide-MHC binding, cellular MHC/competitive/fluorescence; ≥ and ≤ were set here for values at or beyond the usual limits of such assays
[1] = source organism: Vaccinia virus WR
[2] = source organism: Hepacivirus hominis
[3] = source organism: Mammarenavirus whitewaterense

Row | Sequence | IC50 (HLA-A*02:06; [1]) [nM] | IC50 (HLA-A*02:03; [1]) [nM] | IC50 (HLA-A*02:02; [1]) [nM] | IC50 (HLA-A*02:01; [1]) [nM] | IC50 (HLA-A*68:02; [1]) [nM] | other results
1 | VTYNIKPVIV | 358 | 116 | 4920 | 3000 | 8340 | 
2 | ILLSRCLWWT |  |  |  |  |  | IC50 (HLA-A*02:06; [2]): 246 nM; IC50 (HLA-A*02:03; [2]): 1100 nM; IC50 (HLA-A*02:02; [2]): 4740 nM; IC50 (HLA-A*02:01; [2]): 293 nM; IC50 (HLA-A*68:02; [2]): ≥ 70000 nM
3 | TLLLWISVKV |  |  |  |  |  | IC50 (HLA-A*02:06; source organism: SARS-CoV1): 875 nM; IC50 (HLA-A*02:03; source organism: SARS-CoV1): 1060 nM; IC50 (HLA-A*02:02; source organism: SARS-CoV1): 549 nM; IC50 (HLA-A*02:01; source organism: SARS-CoV1): 253 nM; IC50 (HLA-A*68:02; source organism: SARS-CoV1): 15700 nM
4 | KLWAQCVQL |  |  |  |  |  | IC50 (HLA-A*02:06; source organism: SARS-CoV1): 9.5 nM; IC50 (HLA-A*02:03; source organism: SARS-CoV1): 194 nM; IC50 (HLA-A*02:02; source organism: SARS-CoV1): 13 nM; IC50 (HLA-A*02:01; source organism: SARS-CoV1): 4.7 nM; IC50 (HLA-A*68:02; source organism: SARS-CoV1): 23100 nM
5 | KIILFQNNDI | 2170 | 2000 | 1610 | 3660 | 17200 | 
6 | KLYGYASLT | 1990 | 22 | 76 | 326 | 11000 | 
7 | VQFSILNNPV | 186 | 369 | 131 | 1910 | 39700 | 
8 | FMLCLLLLS |  |  |  |  |  | IC50 (HLA-A*02:06; [2]): 2100 nM; IC50 (HLA-A*02:03; [2]): 1450 nM; IC50 (HLA-A*02:02; [2]): 997 nM; IC50 (HLA-A*02:01; [2]): 2730 nM; IC50 (HLA-A*68:02; [2]): ≥ 70000 nM
9 | GLVDVCFWS |  |  |  |  |  | IC50 (HLA-A*02:06; [3]): 534 nM; IC50 (HLA-A*02:03; [3]): 1070 nM; IC50 (HLA-A*02:02; [3]): 116 nM; IC50 (HLA-A*02:01; [3]): 112 nM; IC50 (HLA-A*68:02; [3]): 8220 nM
10 | SINNQLMYDI | 4840 | 482 | 492 | 2380 | 6460 | 
11 | SMSQELAEL | 186 | 7.7 | 4 | 84 | 42900 | 
12 | LLNMRDLIV | 225 | 1.2 | 665 | 42 | 23200 | 
13 | SLTQVKELGI | 157 | 75 | 9.8 | 210 | 7150 | 
14 | ALVFLILCFT |  |  |  |  |  | IC50 (HLA-A*02:06; source organism: SARS-CoV1): 229 nM; IC50 (HLA-A*02:03; source organism: SARS-CoV1): 1120 nM; IC50 (HLA-A*02:02; source organism: SARS-CoV1): 209 nM; IC50 (HLA-A*02:01; source organism: SARS-CoV1): 161 nM; IC50 (HLA-A*68:02; source organism: SARS-CoV1): 10500 nM
15 | KLLPQLPGV |  |  |  |  |  | IC50 (HLA-A*02:06; [2]): 1.7 nM; IC50 (HLA-A*02:03; [2]): 5.2 nM; IC50 (HLA-A*02:02; [2]): 51 nM; IC50 (HLA-A*02:01; [2]): 1.7 nM; IC50 (HLA-A*68:02; [2]): 42400 nM
16 | YLPEVISTIA | 18 | 0.96 | 11 | 29 | 7130 | 
17 | ILFQNNDINA | 3180 | 407 | 23 | 549 | 9980 | 

From the Immune Epitope Database (IEDB)
